For 64 molecules, ELISA S/N(SA) results are on record in patent US20240092836A1.

In this assay the target is Recombinant Human CTLA4-Fc chimera (R&D systems) (human) (UniProt P16410). Briefly: ELISA, signal over SA. Background: ELISA stands for enzyme-linked immunosorbent assay.
Turning to GGCWHPYLPILSRHFCQA (peptide, not shown: large carriers; small tags and cut ends) [C4m#19-5th4w-NN6-63], the ELISA S/N(SA) is 16.5.

Turning to GGCWHPYLPIFSVHFCPR (peptide, not shown: large carriers; small tags and cut ends) [C4m3127-4th-NNS6-16], the ELISA S/N(SA) is 16.5.

GGCRHPVLPIVSLHFCPG (peptide, not shown: large carriers; small tags and cut ends) [C4m3127-4th-NNS6-17]: the ELISA S/N(SA) was 20.4.

On to GGCLHPYLPIVSSHFCPF (peptide, not shown: large carriers; small tags and cut ends) [C4m3127-4th-NNS6-64], for which the ELISA S/N(SA) stood at 12.9.

With GGCWHPYLPIVSWHFCSR (peptide, not shown: large carriers; small tags and cut ends) [C4m#19-5th4w-NN6-51], the ELISA S/N(SA) was determined as 22.1.

As to GGCLHPLLPILSVHFCPS (peptide, not shown: large carriers; small tags and cut ends) [C4m#19-5th4w-NN6-83], the ELISA S/N(SA) is 12.

GGCLHPHLPIWSLHFCPL (peptide, not shown: large carriers; small tags and cut ends) [C4m#19-5th4w-NN6-59]: the ELISA S/N(SA) was 27.6.

Turning to GGCRHPFLPIWSHHFCVC (peptide, not shown: large carriers; small tags and cut ends) [C4m#19-5th4w-NN6-11], the ELISA S/N(SA) was 22.1.

As to GGCFHPFLPIRSLHFCCR (peptide, not shown: large carriers; small tags and cut ends) [C4m#19-5th4w-NN6-82], the ELISA S/N(SA) turned out to be 28.3.

In the case of GGCFHPYLPISSVHFCGR (peptide, not shown: large carriers; small tags and cut ends) [C4m#19-5th2w-NNS6-94], the ELISA S/N(SA) came to 22.4.

As to GGCRHPFLPIWSWHFCPF (peptide, not shown: large carriers; small tags and cut ends) [C4m#19-5th4w-NN6-7], the ELISA S/N(SA) is 23.

For GGCSHPFLPIFSLHFCPV (peptide, not shown: large carriers; small tags and cut ends) [C4m#19-5th4w-NN6-38], the ELISA S/N(SA) is 16.6.

GGCLHPFLPIRSVHFCGC (peptide, not shown: large carriers; small tags and cut ends) [C4m#19-5th4w-NN6-52]: the ELISA S/N(SA) was 28.6.

Turning to GGCKHPVLPIVSLHFCPW (peptide, not shown: large carriers; small tags and cut ends) [C4m3127-4th-NNS6-90], the ELISA S/N(SA) came out at 22.9.

Consider GGCRHPWLPIVSYHFCSS (peptide, not shown: large carriers; small tags and cut ends) [C4m#19-5th4w-NN6-90], for which the ELISA S/N(SA) was 21.2.

With GGCWHPALPIRSWHFCPR (peptide, not shown: large carriers; small tags and cut ends) [C4m#19-5th4w-NN6-78], the ELISA S/N(SA) is 27.9.

With GGCWHPFLPILSLHFCSR (peptide, not shown: large carriers; small tags and cut ends) [C4m#19-5th4w-NN6-65], the ELISA S/N(SA) came to 12.5.

As to GGCSHPFLPIRSRHFCPF (peptide, not shown: large carriers; small tags and cut ends) [C4m3127-4th-NNS6-12], the ELISA S/N(SA) amounted to 15.8.

On to GGCWHPFLPIRSVHFCCR (peptide, not shown: large carriers; small tags and cut ends) [C4m#19-5th4w-NN6-14], for which the ELISA S/N(SA) was determined as 16.1.

Take GGCLHPFLPIFSSHFCAL (peptide, not shown: large carriers; small tags and cut ends) [C4m3127-4th-NNS6-28]: the ELISA S/N(SA) came to 23.2.

As for GGCRHPYLPIASPHFCPG (peptide, not shown: large carriers; small tags and cut ends) [C4n#19-5th2w-NNS6-71], the ELISA S/N(SA) was determined as 22.9.

GGCWHPFLPILSLHFCGW (peptide, not shown: large carriers; small tags and cut ends) [C4m#19-6th4w-NN6-5-3]: the ELISA S/N(SA) stood at 14.7.

As to GGCRHPFLPISSIHFCCI (peptide, not shown: large carriers; small tags and cut ends) [C4m#19-5th4w-NN6-58], the ELISA S/N(SA) was 18.7.

In the case of GGCWHPFLPIQSLHFCGV (peptide, not shown: large carriers; small tags and cut ends) [C4m#19-5th4w-NN6-56], the ELISA S/N(SA) stood at 27.1.

As for GGCRHPYLPIFSAHFCRS (peptide, not shown: large carriers; small tags and cut ends) [C4m#19-5th4w-NN6-1], the ELISA S/N(SA) is 16.1.

As for GGCAHPVLPIRSLHFCPH (peptide, not shown: large carriers; small tags and cut ends) [C4m#19-5th4w-NN6-86], the ELISA S/N(SA) was 19.7.

In the case of GGCVHPYLPISSIHFCSM (peptide, not shown: large carriers; small tags and cut ends) [C4m3127-4th-NNS6-72], the ELISA S/N(SA) turned out to be 20.

With GGCLHPWLPIRSRHFCSR (peptide, not shown: large carriers; small tags and cut ends) [C4m#19-5th4w-NN6-68], the ELISA S/N(SA) is 24.7.

Turning to GGCQHPYLPIWSFHFCPF (peptide, not shown: large carriers; small tags and cut ends) [C4m#19-5th4w-NN6-62], the ELISA S/N(SA) worked out at 17.2.

Turning to GGCWHPSLPIYSPHFCPL (peptide, not shown: large carriers; small tags and cut ends) [C4m3127-4th-NNS6-2], the ELISA S/N(SA) was determined as 12.8.

GGCRHPWLPIVSWHFCSR (peptide, not shown: large carriers; small tags and cut ends) [C4m3127-4th-NNS6-87]: the ELISA S/N(SA) was 21.4.

For the molecule GGCRHPFLPIVSFHFCPF (peptide, not shown: large carriers; small tags and cut ends) [C4m#19-5th2w-NNS6-90], the ELISA S/N(SA) turned out to be 19.7.

GGCWHPFLPISSWHFCGL (peptide, not shown: large carriers; small tags and cut ends) [C4m3127-4th-NNS6-60]: the ELISA S/N(SA) was found to be 11.9.

As for GGCWHPFLPIFSVHFCGC (peptide, not shown: large carriers; small tags and cut ends) [C4m#19-5th4w-NN6-85], the ELISA S/N(SA) stood at 22.9.

With GGCWHPHLPIVSSHFCLF (peptide, not shown: large carriers; small tags and cut ends) [C4m#19-5th4w-NN6-2], the ELISA S/N(SA) was determined as 18.4.

As for GGCWHPWLPIKSPHFCAL (peptide, not shown: large carriers; small tags and cut ends) [C4m#19-5th2w-NNS6-75], the ELISA S/N(SA) amounted to 15.3.

Consider GGCRHPFLPIFSKHFCEL (peptide, not shown: large carriers; small tags and cut ends) [C4m3127-4th-NNS6-83], for which the ELISA S/N(SA) came to 20.7.

With GGCLHPWLPIVSVHFCAR (peptide, not shown: large carriers; small tags and cut ends) [C4m#19-5th4w-NN6-69-3], the ELISA S/N(SA) was determined as 24.9.

As to GGCFHPFLPIYSWHFCAR (peptide, not shown: large carriers; small tags and cut ends) [C4m#19-5th4w-NN6-74], the ELISA S/N(SA) is 15.1.

For GGCWHPVLPIRSVHFCCR (peptide, not shown: large carriers; small tags and cut ends) [C4m#19-5th4w-NN6-64], the ELISA S/N(SA) was 13.7.

As to GGCMHPFLPIKSSHFCRK (peptide, not shown: large carriers; small tags and cut ends) [C4m#19-5th4w-NN6-6], the ELISA S/N(SA) was determined as 16.1.

Take GGCRHPFLPIFSLHFCAR (peptide, not shown: large carriers; small tags and cut ends) [C4m#19-5th2w-NNS6-8]: the ELISA S/N(SA) was found to be 16.5.

On to GGCMHPYLPIVSVHFCPC (peptide, not shown: large carriers; small tags and cut ends) [C4m#19-5th4w-NN6-57], for which the ELISA S/N(SA) was 27.7.

With GGCLHPFLPIRSVHFCLR (peptide, not shown: large carriers; small tags and cut ends) [C4m3127-4th-NNS6-79], the ELISA S/N(SA) came to 12.8.

Regarding GGCVHPALPIWSFHFCPS (peptide, not shown: large carriers; small tags and cut ends) [C4m#19-5th4w-NN6-46-1], the ELISA S/N(SA) came to 14.2.

Turning to GGCQHPWLPISSWHFCPR (peptide, not shown: large carriers; small tags and cut ends) [C4m#19-5th2w-NNS6-67], the ELISA S/N(SA) stood at 25.5.

On to GGCFHPWLPIASWHFCGR (peptide, not shown: large carriers; small tags and cut ends) [C4m3127-4th-NNS6-48], for which the ELISA S/N(SA) came to 13.5.

In the case of GGCMHPYLPIKSVHFCPL (peptide, not shown: large carriers; small tags and cut ends) [C4m#19-5th2w-NNS6-55], the ELISA S/N(SA) amounted to 28.3.

As for GGCWHPYLPIQSLHFCPF (peptide, not shown: large carriers; small tags and cut ends) [C4m#19-5th4w-NN6-5-1], the ELISA S/N(SA) was determined as 14.7.

On to GGCPHPWLPIASVHFCPF (peptide, not shown: large carriers; small tags and cut ends) [C4m#19-5th4w-NN6-71], for which the ELISA S/N(SA) stood at 17.4.

As for GGCWHPFLPIMSFHFCPY (peptide, not shown: large carriers; small tags and cut ends) [C4m#19-5th4w-NN6-30], the ELISA S/N(SA) stood at 16.7.

Turning to GGCRHPWLPIWSVHFCGV (peptide, not shown: large carriers; small tags and cut ends) [C4m#19-5th4w-NN6-45], the ELISA S/N(SA) worked out at 15.8.

Take GGCRHPFLPIVSLHFCPF (peptide, not shown: large carriers; small tags and cut ends) [C4m#19-5th2w-NNS6-51]: the ELISA S/N(SA) came to 15.8.

Take GGCWHPWLPIYSHHFCPI (peptide, not shown: large carriers; small tags and cut ends) [C4m#19-5th4w-NN6-24]: the ELISA S/N(SA) came to 27.6.

GGCSHPFLPILSVHFCPF (peptide, not shown: large carriers; small tags and cut ends) [C4m#19-5th4w-NN6-69-1]: the ELISA S/N(SA) turned out to be 24.9.

Turning to GGCWHPYLPIRSVHFCGR (peptide, not shown: large carriers; small tags and cut ends) [C4m#19-5th2w-NNS6-12], the ELISA S/N(SA) was 20.4.

For GGCLHPVLPIRSFHFCWR (peptide, not shown: large carriers; small tags and cut ends) [C4m#19-5th4w-NN6-87], the ELISA S/N(SA) came to 21.4.

In the case of GGCKHPFLPISSHHFCPY (peptide, not shown: large carriers; small tags and cut ends) [C4m#19-5th2w-NNS6-25], the ELISA S/N(SA) was found to be 21.1.

Consider GGCPHPFLPIWSVHFCPF (peptide, not shown: large carriers; small tags and cut ends) [C4m#19-5th4w-NN6-32], for which the ELISA S/N(SA) came to 27.2.

For the molecule GGCWHPVLPIRSCHFCAV (peptide, not shown: large carriers; small tags and cut ends) [C4m#19-5th4w-NN6-79], the ELISA S/N(SA) is 24.9.

Consider GGCGHPFLPIFSLHFCPR (peptide, not shown: large carriers; small tags and cut ends) [C4m3127-4th-NNS6-80], for which the ELISA S/N(SA) was found to be 12.8.

Take GGCLHPFLPISSWHFCGR (peptide, not shown: large carriers; small tags and cut ends) [C4m#19-5th4w-NN6-37]: the ELISA S/N(SA) was determined as 22.7.

Regarding GGCAHPFLPIFSPHFCPF (peptide, not shown: large carriers; small tags and cut ends) [C4m#19-5th2w-NNS6-3], the ELISA S/N(SA) came to 18.4.

Consider GGCKHPVLPIWSWHFCRI (peptide, not shown: large carriers; small tags and cut ends) [C4m#19-5th4w-NN6-50], for which the ELISA S/N(SA) was found to be 28.1.
